Test in all cases: EMSA
Settings in all cases: EMSA: 20 mM Tris-HCl pH 7.5, 25 mM NaCl, 2 mM beta-mercaptoethanol, 10% glycerol; 50 nM nucleosome or DNA; 15 min room temperature; 6% TBE-acrylamide gel, 0.2X …
(In general: A gel shift assay detects complexes by their altered migration in electrophoresis.)

Data set [1] deals with T1, Hop1 CBR loop 1+2 mutant N362A;H365A;R402A;K403A;K404A;K405A (Saccharomyces cerevisiae) (UniProt P20050).
T1 sequence: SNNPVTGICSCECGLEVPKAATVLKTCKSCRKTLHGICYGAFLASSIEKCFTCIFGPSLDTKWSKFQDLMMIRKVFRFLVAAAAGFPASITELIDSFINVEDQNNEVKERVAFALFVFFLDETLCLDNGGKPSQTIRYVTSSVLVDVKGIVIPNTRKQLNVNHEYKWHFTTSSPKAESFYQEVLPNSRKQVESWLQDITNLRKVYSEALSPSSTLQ

In data set [2] the target is T2, Hop1 CBR loop 1+2+3 mutant N362A;H365A;R402A;K403A;K404A;K405A;K452A;R458A (Saccharomyces cerevisiae) (UniProt P20050).
T2 sequence: T1 sequence with K131A, R137A

Data set [3] concerns the target T3, Hop1 CBR loop 1+3 mutant N362A;H365A;K452A;R458A (Saccharomyces cerevisiae) (UniProt P20050).
T3 sequence: T1 sequence with A81R, A82K, A83K, A84K, K131A, R137A

Data set [4] has as its target T4, Hop1 CBR loop2 mutant R402A;K403A;K404A;K405A (Saccharomyces cerevisiae) (UniProt P20050).
T4 sequence: T1 sequence with A41N, A44H

For data set [5], the target named is T5, Hop1 CBR loop2+3 mutant R402A;K403A;K404A;K405A;K452A;R458A (Saccharomyces cerevisiae) (UniProt P20050).
T5 sequence: T1 sequence with A41N, A44H, K131A, R137A

Data set [6] concerns the target T6, Hop1 CBR loop 1 mutant N362A;H365A (Saccharomyces cerevisiae) (UniProt P20050).
T6 sequence: T1 sequence with A81R, A82K, A83K, A84K

For data set [7], the target named is T7, Hop1 CBR loop 3 mutant K452A;R458A (Saccharomyces cerevisiae) (UniProt P20050).
T7 sequence: T1 sequence with A41N, A44H, A81R, A82K, A83K, A84K, K131A, R137A

Changes are numbered by the printed parent chain. Bounds are passed on as bounds.

Usually Kd stands for the concentration at which binding is half-saturated. A high value points to weaker binding.

For the sequence “TGGAGAATCCCGGTGCCGAGGCCGCTCAATTGGTCGTAGACAGCTCTAGCACCGCTTAAACGCACGTACGCGCTGTCCCCCGCGTTTTAACCGCCAAGGGGATTACTCCCTAGTCTCCAGGCACGTGTCAGATATATACATCCTGT (double strand) [Widom 601 mononucleosome (human histones)]”, the Kd in data set [1] was above 50 µM; in data set [2], above 50 µM; in data set [3], 13 µM; in data set [4], above 50 µM; in data set [5], above 50 µM; in data set [6], 2 µM. In addition, in data set [7], the Kd stood at 50 µM.

The values are drawn from publication PMC10907721.
